Consider five molecules from patent publication US20210253718A1 (MODMAB THERAPEUTICS, published 2021).

Numbering of substitutions follows the chain as printed.

Assay [1] addresses T1, FZD9 cysteine-rich domain (CRD), MYC-tagged and GPI-anchored on CHO cells (human, UniProt O00144 35-161, GPI anchor).
T1 construct: also called FZD9 CRD; CHO-myc-FZDGPI; not shown: MYC tag and GPI anchor signal
T1 sequence: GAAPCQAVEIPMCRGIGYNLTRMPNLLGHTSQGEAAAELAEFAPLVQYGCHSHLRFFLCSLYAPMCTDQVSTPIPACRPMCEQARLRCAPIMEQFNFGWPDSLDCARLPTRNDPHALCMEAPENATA
The assay is described as follows: flow cytometry, CHO-CRD cells.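 Also: flow cytometry of Fab binding to CHO cells overexpressing a Frizzled CRD, with binding defined as median fluorescence over twice that of CHO cells lacking any Frizzled CRD.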 A general note: Flow cytometry measures light scatter and fluorescence of single cells or particles in a stream.

The target of assay [2] is T2, FZD5 cysteine-rich domain (CRD), MYC-tagged and GPI-anchored on CHO cells (human, UniProt Q13467 29-156, GPI anchor).
T2 construct: also called FZD5 CRD; CHO-myc-FZDGPI; not shown: MYC tag and GPI anchor signal
T2 sequence: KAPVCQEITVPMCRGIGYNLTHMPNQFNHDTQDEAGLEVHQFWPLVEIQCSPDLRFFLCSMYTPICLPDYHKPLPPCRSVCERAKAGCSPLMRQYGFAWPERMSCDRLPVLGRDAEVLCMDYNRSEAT
In words: flow cytometry, CHO-CRD cells.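 Also: flow cytometry of Fab binding to CHO cells overexpressing a Frizzled CRD, with binding defined as median fluorescence over twice that of CHO cells lacking any Frizzled CRD.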

Assay [3] has as its target T3, FZD10 cysteine-rich domain (CRD), MYC-tagged and GPI-anchored on CHO cells (human, UniProt Q9ULW2 30-156, GPI anchor).
T3 construct: also called FZD10 CRD; CHO-myc-FZDGPI; not shown: MYC tag and GPI anchor signal
T3 sequence: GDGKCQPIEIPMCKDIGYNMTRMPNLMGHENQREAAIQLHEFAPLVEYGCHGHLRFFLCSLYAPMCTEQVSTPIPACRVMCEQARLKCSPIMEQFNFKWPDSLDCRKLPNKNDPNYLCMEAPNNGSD
The assay is described as follows: flow cytometry, CHO-CRD cells.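 Also: flow cytometry of Fab binding to CHO cells overexpressing a Frizzled CRD, with binding defined as median fluorescence over twice that of CHO cells lacking any Frizzled CRD.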

The target of assay [4] is T4, FZD1 cysteine-rich domain (CRD), MYC-tagged and GPI-anchored on CHO cells (human). In words: flow cytometry, CHO-CRD cells.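 Also: flow cytometry of Fab binding to CHO cells overexpressing a Frizzled CRD, with binding defined as median fluorescence over twice that of CHO cells lacking any Frizzled CRD.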
Method: (§1) Binding was measured via flow cytometry analysis of CHO cells overexpressing CRD of FZD1, FZD2, FZD3, FZD4, FZD5, FZD6, FZD7, FZD8, FZD9 or FZD10. Median fluorescence values are shown.
Assay [5] concerns the target T5, FZD3 cysteine-rich domain (CRD), MYC-tagged and GPI-anchored on CHO cells (human, UniProt Q9NPG1 24-150, GPI anchor).
T5 construct: domain: cysteine-rich domain (CRD); also called FZD3 CRD; CHO-myc-FZDGPI; not shown: MYC tag and GPI anchor signal
T5 sequence (looked up): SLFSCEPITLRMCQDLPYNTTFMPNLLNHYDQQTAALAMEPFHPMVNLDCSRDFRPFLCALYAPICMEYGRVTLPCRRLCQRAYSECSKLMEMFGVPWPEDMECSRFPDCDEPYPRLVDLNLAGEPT
The assay is described as follows: flow cytometry, CHO-CRD cells.

Assay [6] deals with T6, FZD4 cysteine-rich domain (CRD), MYC-tagged and GPI-anchored on CHO cells (human, UniProt Q9ULV1 42-167, GPI anchor).
T6 construct: also called FZD4 CRD; CHO-myc-FZDGPI; not shown: MYC tag and GPI anchor signal
T6 sequence: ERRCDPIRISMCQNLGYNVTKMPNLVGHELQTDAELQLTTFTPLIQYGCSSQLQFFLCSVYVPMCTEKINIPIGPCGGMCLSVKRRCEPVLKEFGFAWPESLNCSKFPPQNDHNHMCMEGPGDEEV
The assay is described as follows: flow cytometry, CHO-CRD cells.

Assay [7] addresses T7, FZD2 cysteine-rich domain (CRD), MYC-tagged and GPI-anchored on CHO cells (human, UniProt Q14332 35-161). The assay is described as follows: flow cytometry, CHO-CRD cells.
Method: as §1
Assay [8] concerns the target T8, FZD6 cysteine-rich domain (CRD), MYC-tagged and GPI-anchored on CHO cells (human, UniProt O60353 20-146, GPI anchor).
T8 construct: also called FZD6 CRD; CHO-myc-FZDGPI; not shown: MYC tag and GPI anchor signal
T8 sequence: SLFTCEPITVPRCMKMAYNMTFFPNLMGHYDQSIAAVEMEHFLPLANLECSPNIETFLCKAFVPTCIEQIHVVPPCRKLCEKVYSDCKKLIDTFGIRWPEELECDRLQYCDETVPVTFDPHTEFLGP
The assay is described as follows: flow cytometry, CHO-CRD cells.

Assay [9] has as its target T9, FZD7 cysteine-rich domain (CRD), MYC-tagged and GPI-anchored on CHO cells (human, UniProt O75084 45-169). The assay is described as follows: flow cytometry, CHO-CRD cells.
Method: as §1
Assay [10] has as its target T1, FZD9 cysteine-rich domain (CRD), …. In words: immunofluorescence, CHO-CRD cells.
Assay [11] concerns the target T3, FZD10 cysteine-rich domain (CRD), …. The assay is described as follows: immunofluorescence, CHO-CRD cells.
The target in assay [12] is T4, FZD1 cysteine-rich domain (CRD), …. The assay is described as follows: immunofluorescence, CHO-CRD cells.
The target in assay [13] is T5, FZD3 cysteine-rich domain (CRD), …. In words: immunofluorescence, CHO-CRD cells.
The target in assay [14] is T6, FZD4 cysteine-rich domain (CRD), …. The assay is described as follows: immunofluorescence, CHO-CRD cells.
The target of assay [15] is T7, FZD2 cysteine-rich domain (CRD), …. The assay is described as follows: immunofluorescence, CHO-CRD cells.
Assay [16] concerns the target T8, FZD6 cysteine-rich domain (CRD), …. In words: immunofluorescence, CHO-CRD cells.
Assay [17] concerns the target T10, FZD8 cysteine-rich domain (CRD), MYC-tagged and GPI-anchored on CHO cells (human, UniProt Q498S8 31-155 (rat entry), GPI anchor).
T10 construct: also called FZD8 CRD; CHO-myc-FZDGPI; not shown: MYC tag and GPI anchor signal
T10 sequence: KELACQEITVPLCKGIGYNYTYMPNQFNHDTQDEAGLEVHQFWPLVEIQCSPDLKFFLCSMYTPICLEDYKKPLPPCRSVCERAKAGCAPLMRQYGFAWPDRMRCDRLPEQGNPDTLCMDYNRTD
In words: flow cytometry, CHO-CRD cells.

Assay [18] concerns the target T9, FZD7 cysteine-rich domain (CRD), …. The assay is described as follows: immunofluorescence, CHO-CRD cells.

B1: Fab-2909 (Fab, V domains shown)
VH: EVQLVESGGGLVQPGGSLRLSCAASGFNISSSYMHWVRQAPGKGLEWVASISSSSGYTSYADSVKGRFTISADTSKNTAYLQMNSLRAEDTAVYYCARTVRGSKKPYFSGWAMDYWGQGTLVTVSS
VL: DIQMTQSPSSLSASVGDRVTITCRASQSVSSAVAWYQQKPGKAPKLLIYSASSLYSGVPSRFSGSRSGTDFTLTISSLQPEDFATYYCQQSWSYHYLITFGQGTKVEIK
notes: Fab; also called Fv-2909
In the case of B1, the median fluorescence in assay [1] is 2.57; in [2] it was 31.3; in assay [3], 2.71; in [4], 4.61; in assay [5], 3.43; in assay [6], 4.1. Besides, the median fluorescence in assay [7] was 5.38; in [8], 2.89; in assay [9], 4.57. Moreover, the binding result in [10], in assay [11], in assay [12], in [13], in [14] and in [15] was “no binding” throughout. Moreover, the binding result in assay [16] is given as “no binding”.

B2: Fab-2934 (Fab, V domains shown)
VH: EVQLVESGGGLVQPGGSLRLSCAASGFNISYSYMHWVRQAPGKGLEWVASIYSSSGSTSYADSVKGRFTISADTSKNTAYLQMNSLRAEDTAVYYCARGAIDYWGQGTLVTVSS
VL: DIQMTQSPSSLSASVGDRVTITCRASQSVSSAVAWYQQKPGKAPKLLIYSASSLYSGVPSRFSGSRSGTDFTLTISSLQPEDFATYYCQQWYHYGLITFGQGTKVEIK
notes: Fab; also called Fv-2934
For B2, the median fluorescence in assay [1] was 2.71; in assay [2], 34.3; in assay [17], 29.4; in assay [3], 2.67; in assay [4], 61.5; in [5], 3.28. The median fluorescence in [6] is 4.78; in [8], 2.86; in [9] it was 3.52. Moreover, the binding result in assay [10], in [11], in assay [13], in assay [14], in assay [16] and in assay [18] was “no binding” each time.

B3: Fab-2935 (Fab, V domains shown)
VH: B2 VH with S30Y, S32Y, M34I, S53P, G99A, I101F
VL: B1 VL with S91W, W92Y, S93G, Y94G, H95Y, Y96A
notes: Fab; also called Fv-2935
Take B3: the median fluorescence in [1] is 3.52; in assay [2] it was 29.2; in assay [17], 15.8; in assay [3], 3.34; in [4], 4.07; in assay [5], 4.49. Moreover, the median fluorescence in [7] worked out at 6.79; in [8] it was 3.37; in assay [9], 3. For the same molecule, the binding result in assay [10], in [11], in assay [12], in assay [13], in assay [15] and in assay [16] was “no binding” each time. In addition, in assay [18], the binding result was “no binding”.

B4: Fab-2902 (Fab, V domains shown)
VH: B2 VH with S32Y, M34I, Y52S, G56S, I101L
VL: B1 VL with S91W, W92Y, S93A, Y94F, H95G, Y96A
notes: Fab; also called Fv-2902
Consider B4, for which the median fluorescence in assay [1] came out at 3.96; in assay [2], 36.9; in assay [17], 13.9; in assay [3] it was 4.1; in assay [4] it was 6.1; in assay [5], 6.44. Moreover, the median fluorescence amounted to 8.98 in [7], 4 in [8] and 16 in assay [9]. Besides, the binding result in assay [10], in assay [11], in assay [12], in [13], in assay [15] and in assay [16] was “no binding” each time.

B5: Fab-2923 (Fab, V domains shown)
VH: B2 VH with I29L, S30Y, S32Y, I101M
VL: B1 VL with S91W, W92Y, S93G, H95S, Y96A
notes: Fab; also called Fv-2923
Consider B5, for which the median fluorescence in assay [1] amounted to 4.83; in [2], 36.9; in assay [17], 11.9; in assay [3] it was 4.22; in assay [4], 6.04; in assay [5], 6.67. For the same molecule, the median fluorescence in assay [7] was 7.91; in assay [8], 4.33; in assay [9] it was 6.04. In addition, the binding result in [10], in assay [11], in assay [12], in assay [13], in assay [15] and in [16] was “no binding” throughout. In addition, the binding result in [18] was “no binding”.
